This assay has as its target lymphotoxin beta receptor on the surface of HT29 cells (human) (UniProt P36941). In words: cell-based or functional assay.

Sequence of lymphotoxin beta receptor on the surface of HT29 cells (human) (P36941 31-435): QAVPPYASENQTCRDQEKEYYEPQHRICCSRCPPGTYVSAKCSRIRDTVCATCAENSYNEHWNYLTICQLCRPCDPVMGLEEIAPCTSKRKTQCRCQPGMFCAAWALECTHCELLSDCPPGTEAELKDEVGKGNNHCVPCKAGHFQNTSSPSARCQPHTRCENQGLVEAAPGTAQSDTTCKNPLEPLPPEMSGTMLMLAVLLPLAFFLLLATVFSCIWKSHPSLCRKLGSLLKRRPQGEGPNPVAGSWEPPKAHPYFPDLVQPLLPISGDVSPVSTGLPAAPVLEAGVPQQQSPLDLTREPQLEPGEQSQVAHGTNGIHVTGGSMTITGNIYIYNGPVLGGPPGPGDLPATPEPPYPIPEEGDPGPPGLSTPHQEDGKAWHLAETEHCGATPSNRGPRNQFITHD

humanized BHA10 antibody had a minimum A450 (plateau of HT29 cell growth, MTT, with interferon gamma) of 0.9 A450. With humanized CBE11 antibody the figure was 0.8 A450.

Source of the values: patent US20060104971A1, “Multivalent lymphotoxin beta receptor agonists and therapeutic uses thereof” (Biogen Idec MA Inc., priority 2002, published 2006).
